One block for each substance: values may come before it.
Tests used:
[1] = target: HLA-DR1 (HLA-DRα*0101 and HLA-DRβ1*0101) (human); assay: ELISA; competitive peptide-binding assay: test peptide 10^-4-10^-10 M against 4.5 nM biotinylated CLIP 99-117 marker peptide for 0.1 μg refolded HLA-DR1-CLIP 105-117; 20 mM MES, 140 mM NaCl, 0.02% NaN3, pH 5, overnight at 37 °C; HLA-DR1 captured on anti-DR L243, bound marker detected with streptavidin-HRP; % competitive inhibition, four-parameter fit
[2] = target: HLA-DR1 (HLA-DRα*0101 and HLA-DRβ1*0101); assay: in vitro competition assay (HLA-DR1 peptide binding)
[3] = target: HLA-DR1 (HLA-DRα*0101 and HLA-DRβ1*0101) (human); assay: ELISA

- IC50 [1]: 535 nM
Substance: 5T4_(11–30) peptide (from UniProt Q13641 11-30)

- IC50 [2]: 149 nM
Substance: 5T4_(111–130) 20-mer peptide E3A

Substance: IAV hemagglutinin_(306–319) epitope (peptide)
- IC50 [3]: 13 nM

From paper PMC6937582, “Human leukocyte antigen (HLA) class II peptide flanking residues tune the immunogenicity of a human tumor-derived epitope” (The Journal of Biological Chemistry, 2019)
